Assays:
Cav3.1 [1] = target: T1, Cav3.1 (Homo sapiens, UniProt O43497); experiment: Whole-cell patch clamp of Cav3.1 current in Cav3.1-HEK cells transfected with γ6, γ4, their first transmembrane domains or point mutants (Example 3); assay type: cell-based; design: Activation K / Inactivation K: unit not given here; details: for Peak current density: Cav3.1-HEK cells, control 48.43±2.62; for Calcium current density (unit not given): Example 2, control −48.39+/−2.6, fusion series control −46.9+/−5; for Activation K / Activation V½ / Deactivation τ @−100 mV / Inactivation K / Inactivation V½ / Inactivation τ @−20 mV / Time to peak @−25 mV / Activation V peak: Table 3.2; for Normalized Current Density: relative to vector control (100.0%), Table 3.3
T1 construct: expressed in transfected cells; host or cells: HEK-293, stably transfected
T1 sequence (O43497 whole entry, the tested form may be a part): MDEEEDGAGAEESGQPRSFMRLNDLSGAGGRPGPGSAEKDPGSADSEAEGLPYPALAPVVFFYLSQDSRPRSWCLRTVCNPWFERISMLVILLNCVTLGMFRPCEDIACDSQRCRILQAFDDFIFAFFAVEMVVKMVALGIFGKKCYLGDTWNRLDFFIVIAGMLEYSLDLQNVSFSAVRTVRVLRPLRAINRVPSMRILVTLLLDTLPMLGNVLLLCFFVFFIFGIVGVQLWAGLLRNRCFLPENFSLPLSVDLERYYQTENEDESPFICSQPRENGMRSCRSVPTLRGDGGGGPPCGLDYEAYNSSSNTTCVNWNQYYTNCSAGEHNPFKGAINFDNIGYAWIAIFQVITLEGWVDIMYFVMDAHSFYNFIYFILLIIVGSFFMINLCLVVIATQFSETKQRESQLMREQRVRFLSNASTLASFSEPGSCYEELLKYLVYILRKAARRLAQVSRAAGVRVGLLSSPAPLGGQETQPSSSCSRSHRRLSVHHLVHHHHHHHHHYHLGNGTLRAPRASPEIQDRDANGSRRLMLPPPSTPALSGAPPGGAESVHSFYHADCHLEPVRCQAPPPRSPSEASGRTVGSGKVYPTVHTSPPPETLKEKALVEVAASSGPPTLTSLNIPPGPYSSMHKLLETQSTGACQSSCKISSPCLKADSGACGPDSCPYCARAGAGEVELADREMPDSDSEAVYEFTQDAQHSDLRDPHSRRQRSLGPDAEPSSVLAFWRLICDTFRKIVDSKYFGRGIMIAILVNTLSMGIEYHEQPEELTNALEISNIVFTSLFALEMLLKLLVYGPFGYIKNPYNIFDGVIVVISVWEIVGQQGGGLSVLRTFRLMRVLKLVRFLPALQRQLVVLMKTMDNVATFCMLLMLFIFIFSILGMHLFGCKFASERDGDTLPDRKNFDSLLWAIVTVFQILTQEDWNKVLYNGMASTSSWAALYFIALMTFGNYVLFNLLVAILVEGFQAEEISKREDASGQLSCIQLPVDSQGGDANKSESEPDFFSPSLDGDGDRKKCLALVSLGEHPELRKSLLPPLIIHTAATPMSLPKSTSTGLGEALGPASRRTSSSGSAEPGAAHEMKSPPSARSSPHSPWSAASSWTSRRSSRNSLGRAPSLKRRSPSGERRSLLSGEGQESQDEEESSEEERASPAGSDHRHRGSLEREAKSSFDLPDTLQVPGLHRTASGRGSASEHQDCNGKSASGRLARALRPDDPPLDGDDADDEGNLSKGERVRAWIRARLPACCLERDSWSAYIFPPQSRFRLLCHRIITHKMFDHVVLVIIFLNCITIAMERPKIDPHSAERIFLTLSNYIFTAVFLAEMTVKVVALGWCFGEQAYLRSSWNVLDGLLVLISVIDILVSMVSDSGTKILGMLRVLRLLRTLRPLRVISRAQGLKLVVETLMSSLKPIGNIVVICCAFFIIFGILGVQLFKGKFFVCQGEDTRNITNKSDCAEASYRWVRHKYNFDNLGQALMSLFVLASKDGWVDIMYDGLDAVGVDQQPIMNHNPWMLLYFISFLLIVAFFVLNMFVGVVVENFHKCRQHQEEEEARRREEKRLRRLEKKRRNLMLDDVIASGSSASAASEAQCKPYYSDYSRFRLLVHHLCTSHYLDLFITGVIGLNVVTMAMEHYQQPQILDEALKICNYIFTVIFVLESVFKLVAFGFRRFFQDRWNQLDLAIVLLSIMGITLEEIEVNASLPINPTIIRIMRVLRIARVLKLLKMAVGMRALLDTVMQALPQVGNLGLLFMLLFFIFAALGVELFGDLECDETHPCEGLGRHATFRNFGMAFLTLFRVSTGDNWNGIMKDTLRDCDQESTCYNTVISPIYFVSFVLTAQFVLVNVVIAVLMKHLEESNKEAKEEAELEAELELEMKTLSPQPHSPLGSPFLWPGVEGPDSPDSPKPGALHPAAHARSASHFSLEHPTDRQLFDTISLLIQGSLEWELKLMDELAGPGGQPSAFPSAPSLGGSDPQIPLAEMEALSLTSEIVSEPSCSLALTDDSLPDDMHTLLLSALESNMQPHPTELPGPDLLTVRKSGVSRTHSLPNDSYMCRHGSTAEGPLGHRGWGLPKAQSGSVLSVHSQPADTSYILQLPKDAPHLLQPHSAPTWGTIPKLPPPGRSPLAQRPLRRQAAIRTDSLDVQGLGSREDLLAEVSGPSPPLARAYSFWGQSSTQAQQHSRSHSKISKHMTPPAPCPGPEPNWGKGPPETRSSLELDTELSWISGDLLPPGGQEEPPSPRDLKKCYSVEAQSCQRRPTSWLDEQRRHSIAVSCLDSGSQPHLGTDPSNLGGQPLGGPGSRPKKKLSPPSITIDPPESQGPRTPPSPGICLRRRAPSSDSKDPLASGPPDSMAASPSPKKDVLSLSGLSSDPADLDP
Protocol: Transfection. HEK-293 cells stably transfected with the Cav3.1 α1 subunit were transiently transfected with vectors containing GFP and γ subunits cDNA when the cultures reached 50% confluency. Lipofectamine 2000 reagent (Invitrogen) was used following manufacturer's protocol.
Electrophysiology. Whole cell Ca2+ currents were recorded at room temperature using an Axon Instruments Axopatch-1D amplifier, a Digidata 1200 interface and pClamp8.0 software about 48 hours after transfection. Cell capacitance was typically around 10 pF, but ranged from 5-40 pF. Recording micropipettes were made from borosilicate glass (2-3 Mohms tip resistance), and filled with solution contained (in mM) 130 NaCl, 10 EGTA, 2 MgCl2, 1 CaCl2, 10 HEPES, 3 Tris-ATP, and 0.3 Li2GTP or 0.3 Tris-GTP. Tyrode's solution was used as the bath solution. It contained (in mM) 137 NaCl, 1 KCl, 1 MgCl2, 0.33 NaH2PO4, 2 CaCl2, 10 HEPES. Both solutions were adjusted to pH 7.4 with NaOH and 280 mOsm with sucrose.
We determined the biophysical characteristics of Cav3.1 currents in transfected HEK-293 cells and effects of the first transmembrane domain of γ4 and γ6 on these properties. Test parameters were optimized for studying Cav3.1 current. The time constant (τ) of deactivation (τdeac) was obtained by single exponential fitting of tail currents. For Cav3.1 currents, the cells were clamped at a holding potential of −100 mV, then depolarized to −20 mV for 4 msec, and repolarized to various voltages from −120 mV to −60 mV at 10 mV interval for 150 msec to elicit tail currents.
The voltage dependence of activation was measured using tail currents. For Cav3.1 currents, the cells were clamped at a holding potential equal to −100 mV, and then depolarized briefly to a conditioning potential, varying from −90 mV to +60 mV, and finally clamped at −60 mV before inactivation. Using this protocol, all tail currents are elicited at the same driving force (at −60 mV), so the current amplitude accurately reflects the number of channels opened during the different conditioning potentials.
A series of conditioning prepulses of 500 msec were used to measure voltage dependence of inactivation in our experiments. Channels initially open and then reach steady-state inactivation during the 500 msec long prepulses. The membrane potential is stepped to a fixed test potential of −20 mV, where maximal peak current is elicited. Currents elicited at each test potential reflect how many channels are not in the inactivated state after a steady-state inactivation; that is, how many channels are available to open. The conditioning prepulse potentials were changed from −120 mV to 50 mV, and the test potential is fixed at −20 mV.
Data collection and analysis. To probe the structural features necessary for the function of γ subunits, we are using HEK-293 cell line stably transfected with Cav3.1 α1 subunit. These cells are then transiently transfected with vectors containing various chimeric, truncated or mutant gamma subunits. […] There is inherent variation in calcium current density in the HEK-Cav3.1 stable cell line likely due to differences in the batch used, passenger number, extent of cellular confluence, or for other unknown reasons. The averaged current density of each test group of cells was normalized to the mean current density of a parallel control group of cells plated from the same batch of cells and analyzed on the same day. A minimum of 5 cells (typically 7 to 10) from each group was used to calculate the mean behavior of test and control cells from each days recording. At least two independent transfections were performed for each test condition. Overall, averages were obtained from 21 control groups of cells that had been transfected with empty vector over several months. The data are pooled together to reduce the variance. […] The current density of the control cells over many months justified the pooling of data recorded from different batches of cells transfected with mutated γ subunits. […]

Cav3.1 [2] = target: T1, Cav3.1; experiment: Whole-cell patch clamp of Cav3.1 dependent LVA calcium current in HEK-293/Cav3.1 cells transiently transfected with γ subunits (Example 1); assay type: cell-based
Protocol: 2.3. Transfection. Untransfected HEK-293 cells, HEK-293 cell lines stably transfected with Cav3.1, and HL-1 cells were transiently transfected with vectors containing γ subunit, GFP, and modified CFP cDNAs using Lipofectamine 2000 reagent (InVitrogen) as per the manufacturer's recommendations. HEK-293 cells were grown to 70-80% confluence before transfection. HL-1 cells were grown to 50-75% confluence before transfection.
2.4. Electrophysiology. Whole-cell calcium currents were recorded using an Axopatch-1 D patch clamp system and Clampex 8.0 software. Pipettes were fabricated from borosilicate glass and had typical resistances of 2-4 MΩ. The pipette solution contained (in mM): 130 NaCl, 10 EGTA, 2 MgCl2, 1 CaCl2, 10 HEPES, 3 Tris-ATP, and either 0.3 Li2GTP or 0.3 Tris-GTP, adjusted to pH 7.4 with NaOH and 280 mOsm with sucrose. The bath solution contained (in mM): 137 NaCl (for HEK-293 experiments) or 120 TEACl (for HL-1 experiments), 1 KCl, 1 MgCl2, 0.33 NaH2PO4, 2 CaCl2 (for HEK-293 experiments) or 5 CaCl2 (for HL-1 experiments), 10 glucose (for HL-1 experiments only), 10 HEPES, and 30 μM TTX (for HEK-293 experiments only), adjusted to pH 7.4 with NaOH (for HEK-293 experiments) or TEAOH (for HL-1 experiments) and 280 mOsm with sucrose. NaCl was used as the major salt in the pipette solution order to eliminate any outward K+ currents.
Recordings from HEK-293 cells were made 48-96 h posttransfection, at which time expression, as measured by GFP fluorescence, peaked. HL-1 cells were used for recording 24-36 h post-transfection. Current densities in HEK-293/Cav3.1 cell experiments were normalized to control for variation in current expression in the different frozen stocks of stable cell lines used. […] HL-1 experiments were performed using a single stock of cells. All HEK-293 data are from current records in which pipette and whole-cell capacitance were about 100% compensated and series resistance was compensated to >80%. Whole-cell capacitance and series resistance were not compensated for HL-1 recordings as currents were typically <100 pA. Series resistance values were typically <10 MX, and no records were used in which the voltage error (as defined by Ver=Imax×Ra) was greater than 5 mV. The holding potential of all protocols used for HEK-293 cells was −100 mV except for steady-state inactivation protocols where the holding potential was −120 mV. The holding potential for protocols used for HL-1 cells was −90 mV. Current-voltage relationships for all HEK-293 and HL-1 cells were measured using 50 ms test depolarizations. Peak current amplitudes for activation curves were determined by fitting tail currents, elicited by stepping membrane voltage from varying test potentials to −60 mV, with the Boltzman equation. Test potential steps for activation protocols were of varied durations, corresponding to the time to peak of the elicited current. Inactivation curves were determined by fitting peak amplitudes of currents, observed in a test pulse to −20 mV, following 500 ms steps to varying potentials, with the Boltzman equation. Time to peak was determined using the current-voltage protocol described above. Inactivation time constants were determined by fitting the decay phase of currents to an exponential equation and deactivation time constants were determined by fitting the decay phase of tail currents to an exponential equation. […] Currents were recorded at 40 kHz and on-line filtered at either 5 or 10 kHz. In some cases currents were off-line filtered at 1 kHz to further reduce noise. Current/voltage relationships and tail currents were recorded from HEK cells using an on-line P/−4 subtraction procedure. Calcium currents recorded from HL-1 cells were off-line leak subtracted. The average membrane capacitance of untransfected HEK-293 cells in pilot experiments was 12.5±1.4 pF (n=8). […]

Molecule	Peak current density (Cav3.1 [1]) [pA/pF]	Calcium current density (unit not given) (Cav3.1 [1])	Activation K (Cav3.1 [1])	Activation V½ (Cav3.1 [1]) [mV]	Deactivation τ @−100 mV (Cav3.1 [1]) [ms]	Inactivation K (Cav3.1 [1])	Inactivation V½ (Cav3.1 [1]) [mV]	Inactivation τ @−20 mV (Cav3.1 [1]) [ms]	Time to peak @−25 mV (Cav3.1 [1])	also measured
γ4 TM1: first transmembrane domain of γ4, SEQ ID NO:17 (LLTTAGAFAAFSLMAIAIGT)	56.34±5.01	−48.3+/−3	13.29 ± 0.70	−29.71 ± 2.03	2.40 ± 0.22	−5.92 ± 0.12	−66.17 ± 0.83	25.5 ± 0.9	9.00 ± 0.51	Activation V peak (Cav3.1 [1]; listed as γ4 1stTM): −28.57 ± 0.82 mV; Activation V peak (Cav3.1 [1]; listed as γ4 first transmembrane domain): −28.57±0.82 mV
γ6 TM1: first transmembrane domain of γ6, approximately 20 amino acids, SEQ ID NO:12 (KLGLLVAIVGATLAVLAVGT)	38.65±2.92	−38.6+/−2.9	10.85 ± 0.49	−30.33 ± 2.32	2.01 ± 0.21	−5.54 ± 0.12	−62.43 ± 0.65	24.0 ± 1.3	11.06 ± 0.97	Decrease of peak current density from control (Cav3.1 [1]; TM1 series, vs blank vector): 20%; Activation V peak (Cav3.1 [1]): −26.00±1.00 mV; Activation V peak (Cav3.1 [1]; listed as γ6 1stTM): −26.00 ± 1.00 mV
γ6 L43S: γ6 with leucine at position 43 substituted with serine (protein, UniProt Q9BXT2 1-260, looked up, variant L43S) Voltage-dependent calcium …: MMWSNFFLQEENRRRGAAGRRRAHGQGRSGLTPEREGKVKLASLLAAVGATLAVLSVGTEFWVELNTYKANGSAVCEAAHLGLWKACTKRLWQADVPVDRDTCGPAELPGEANCTYFKFFTTGENARIFQRTTKKEVNLAAAVIAVLGLAVMALGCLCIIMVLSKGAEFLLRVGAVCFGLSGLLLLVSLEVFRHSVRALLQRVSPEPPPAPRLTYEYSWSLGCGVGAGLILLLGAGCFLLLTLPSWPWGSLCPKRGHRAT	–	–	–	–	–	–	–	–	–	Normalized Current Density (Cav3.1 [1]): 48.2%; Normalized Current Density (Cav3.1 [1]; listed as L43S): 48.2%±7.2%
γ7: rat calcium channel γ7 subunit (AF361345), SEQ ID NO:50 (protein, listed as Rattus norvegicus) MSHCSSRALTLLSSVFGACGLLLVGIAVSTDYWLYMEEGTVLPQNQTTEVKMALHAGLWRVCFFAGREKGRCVASEYFLEPEINLVTENTENILKTVRTATPFPMVSLFLVFTAFVISNIGHIRPQRTILAFVSGIFFILSGLSLVVGLVLYISSINDEVMNRPSSSEQYFHYRYGWSFAFAASSFLLKEGAGVMSVYLFTKRYAEEEMYRPHPAFYRPRLSDCSDYSGQFLQPEAWRRGRSPSDISSDVSIQMTQNYPPAIKYPDHLHISTSPC	–	–	–	–	–	–	–	–	–	Effect on current kinetics or voltage dependency (Cav3.1 [2]; HEK-293/Cav3.1): did not alter current kinetics or voltage dependency; Peak current density, % of control value (Cav3.1 [2]; HEK-293/Cav3.1, normalized to adCGI vector control, mean±S.E.M.): 99%±8%; Effect on Cav3.1 current (Cav3.1 [2]; HEK-293 cells): no significant effect; Activation V 0.5 (Cav3.1 [2]; Table 2): −28.1 ± 1.2 (n = 11) mV; Activation k (Cav3.1 [2]; Table 2): 11.1 ± 0.3 (n = 11); Deactivation tau @ −100 mV, Fast (Cav3.1 [2]; Table 2): 1.30 ± 0.10 (n = 11) ms; Inactivation Tau @ −20 mV (Cav3.1 [2]; Table 2): 17.2 ± 0.5 (n = 10) ms; Inactivation V 0.5 (Cav3.1 [2]; Table 2): −68.6 ± 1.4 (n = 10) mV; Inactivation k (Cav3.1 [2]; Table 2): 6.0 ± 0.1 (n = 10); Time to peak @ −20 mV (Cav3.1 [2]; Table 2): 7.0 ± 0.4 (n = 11) ms; V peak (Cav3.1 [2]; Table 2): −24.1 ± 0.9 (n = 11) mV
